The values below come from patent US11541086.

The test has as its target amyloid-beta oligomers prepared from synthetic Aβ1-42 (UniProt P05067). As to the kind of experiment: cell-based or functional assay.
Sequence of UniProt P05067 (P05067 672-713 limits assumed): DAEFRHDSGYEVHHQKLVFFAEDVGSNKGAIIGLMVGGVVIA

“NUsc1 scFv expressed and secreted by neurons transduced with the AAV9 vector AAV-NUsc1” yielded an AβO binding to dendrites in hippocampal neurons (NU4 immunoreactivity) of 50 % decrease.
